Holding throughout (assay): enzyme inhibition, pNA substrate
The target of one experiment is T1, Chymase, from human skin (human, UniProt P23946 22-247).
T1 construct: purified natural enzyme, bought
T1 sequence (looked up): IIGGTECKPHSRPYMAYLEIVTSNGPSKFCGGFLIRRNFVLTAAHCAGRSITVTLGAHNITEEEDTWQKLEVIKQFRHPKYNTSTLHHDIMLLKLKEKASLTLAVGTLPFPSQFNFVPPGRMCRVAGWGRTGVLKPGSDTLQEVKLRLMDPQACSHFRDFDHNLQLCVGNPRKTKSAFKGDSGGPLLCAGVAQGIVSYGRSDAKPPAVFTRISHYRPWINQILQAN

The target in experiment [1] is T2, CathepsinG, from human neutrophils (human, UniProt P08311 21-244).
T2 construct: purified natural enzyme, bought
T2 sequence (looked up): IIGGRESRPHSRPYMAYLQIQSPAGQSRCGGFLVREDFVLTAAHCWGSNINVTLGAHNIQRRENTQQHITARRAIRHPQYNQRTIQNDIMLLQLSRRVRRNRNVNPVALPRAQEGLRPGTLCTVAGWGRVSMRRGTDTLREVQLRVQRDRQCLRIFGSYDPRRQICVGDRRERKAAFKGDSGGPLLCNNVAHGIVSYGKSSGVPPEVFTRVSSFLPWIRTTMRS

In experiment [2] the target is T3, Tryptase, from human lung (human, UniProt Q15661 31-275, limits assumed).
T3 construct: purified natural enzyme, bought
T3 sequence (Q15661 31-275 limits assumed): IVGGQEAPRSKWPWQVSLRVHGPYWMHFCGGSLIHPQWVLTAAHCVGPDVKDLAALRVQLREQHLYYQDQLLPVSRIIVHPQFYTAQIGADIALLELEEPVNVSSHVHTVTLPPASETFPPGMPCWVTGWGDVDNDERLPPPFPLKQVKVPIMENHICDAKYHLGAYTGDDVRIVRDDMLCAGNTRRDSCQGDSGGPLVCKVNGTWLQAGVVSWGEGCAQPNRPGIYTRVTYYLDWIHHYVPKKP

The target of experiment [3] is Thrombin, from Human Plasma, high activity (human, UniProt P00734 328-622).
In experiment [4] the target is T4, Coagulation Factor Xa, from uman plasma (human, UniProt P00742 41-179; P00742 235-488, limits assumed).
T4 construct: purified natural enzyme, bought; also called FXa
T4 sequence (P00742 41-179 limits assumed, chain 1 of 2): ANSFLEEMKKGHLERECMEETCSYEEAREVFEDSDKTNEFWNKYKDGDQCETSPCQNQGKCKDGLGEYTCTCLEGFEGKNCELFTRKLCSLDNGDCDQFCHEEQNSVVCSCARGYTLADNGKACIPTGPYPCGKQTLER
T4 sequence (P00742 235-488 limits assumed, chain 2 of 2): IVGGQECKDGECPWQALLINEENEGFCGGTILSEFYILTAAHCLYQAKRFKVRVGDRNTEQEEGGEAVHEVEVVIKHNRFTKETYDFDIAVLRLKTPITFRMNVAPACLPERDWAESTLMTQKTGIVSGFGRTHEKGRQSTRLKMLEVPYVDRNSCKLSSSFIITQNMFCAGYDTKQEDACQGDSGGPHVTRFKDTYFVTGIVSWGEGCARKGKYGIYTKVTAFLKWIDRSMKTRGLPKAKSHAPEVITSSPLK

Experiment [5] has as its target T5, Trypsin, Iodination grade, from human pancreas (human, UniProt P07477 24-247).
T5 construct: purified natural enzyme, bought

For experiment [6], the target named is T6, Chymotrypsin, from human pancreas (human, UniProt P17538 19-263).
T6 construct: purified natural enzyme, bought
T6 sequence (P17538 19-263): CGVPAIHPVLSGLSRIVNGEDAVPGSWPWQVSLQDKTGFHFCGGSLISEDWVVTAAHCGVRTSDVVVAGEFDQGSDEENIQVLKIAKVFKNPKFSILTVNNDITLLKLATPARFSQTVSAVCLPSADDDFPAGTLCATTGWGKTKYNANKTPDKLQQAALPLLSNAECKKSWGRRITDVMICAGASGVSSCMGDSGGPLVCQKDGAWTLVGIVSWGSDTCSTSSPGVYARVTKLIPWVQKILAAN

Experiment [7] has as its target T7, Urokinase from human urine (human, UniProt P00749 21-431, limits assumed).
T7 construct: purified natural enzyme, bought

Bridges are numbered along the chain shown (N, C = ends). Primed or numbered codes have the meaning given here. [ ]: non-standard residue; d: D form. Pro(4NHCOPhe)″ = 4-benzamido-L-proline, (2S)-4-benzoylamino-pyrrolidine-2-carboxylic acid; Gly(octyl) = CCCCCCCC[C@H](N)C(=O)O; Pro(4NHCOPhe) = not defined here; Cha = N[C@@H](CC1CCCCC1)C(=O)O; Nle = CCCC[C@H](N)C(=O)O

What is called % inhibition is how much of the control response was suppressed.

B1: Example 86 (peptide)
peptide: cyclo([Nle]CAASIPPQCY[dP]P)
modifications: disulfide 2-10
notes: also called Ex. 86
In the case of B1, the “% inhibition at 100 µM” value was 0% with Chymase, from human skin; 47% in experiment [1]; 0% in experiment [2]; 10.7% in experiment [3]; 24.8% in experiment [4]; 0% in experiment [5].

B2: Example 91 (peptide)
peptide: XCTASIPPQCQ
HELM: PEPTIDE1{[Nle].C.T.A.S.I.P.P.Q.C.Q.[dP].P}$PEPTIDE1,PEPTIDE1,2:R3-10:R3|PEPTIDE1,PEPTIDE1,1:R1-13:R2$$$V2.0
SMILES: CCCC[C@@H]1NC(=O)[C@@H]2CCCN2C(=O)[C@H]2CCCN2C(=O)[C@H](CCC(N)=O)NC(=O)[C@@H]2CSSC[C@H](NC1=O)C(=O)N[C@@H]([C@@H](C)O)C(=O)N[C@@H](C)C(=O)N[C@@H](CO)C(=O)N[C@@H]([C@@H](C)CC)C(=O)N1CCC[C@H]1C(=O)N1CCC[C@H]1C(=O)N[C@@H](CCC(N)=O)C(=O)N2
notes: also called Ex. 91
As to B2, the “% inhibition at 100 µM” value in experiment [1] came to 45%; in experiment [3] it was 13.5%; in experiment [4], 19.4%; in experiment [5], 0%.

B3: Example 174 (peptide)
peptide: XCTASIPPQCY
HELM: PEPTIDE1{[O=C([C@H](CCc1ccccc1)N[*:1])[*:2]].C.T.A.S.I.P.P.Q.C.Y.[dK].E}$PEPTIDE1,PEPTIDE1,2:R3-10:R3|PEPTIDE1,PEPTIDE1,1:R1-13:R2$$$V2.0
SMILES: CC[C@H](C)[C@@H]1NC(=O)[C@H](CO)NC(=O)[C@H](C)NC(=O)[C@H]([C@@H](C)O)NC(=O)[C@@H]2CSSC[C@H](NC(=O)[C@H](CCC(N)=O)NC(=O)[C@@H]3CCCN3C(=O)[C@@H]3CCCN3C1=O)C(=O)N[C@@H](Cc1ccc(O)cc1)C(=O)N[C@H](CCCCN)C(=O)N[C@@H](CCC(=O)O)C(=O)N[C@@H](CCc1ccccc1)C(=O)N2
B3: the “% inhibition at 100 µM” value was found to be 0% with Chymase, from human skin; 56% in experiment [1]; 85% in experiment [6]; 10% in experiment [2]; 11% in experiment [3].

B4: Example 138 (peptide)
peptide: cyclo([Nle]CTASIP[Pro(4NHCOPhe)″]QCY[dP]P)
modifications: disulfide 2-10
On to B4, for which the “% inhibition at 100 µM” value in experiment [7] came out at 14.4%; in experiment [6], 77.1%; in experiment [2] it was 0%; in experiment [3], 17.1%; in experiment [4] it was 12.6%; in experiment [5] it was 12.2%.

B5: Example 176 (peptide)
peptide: cyclo([Nle]CTAS[Cha]P[Pro(4NHCOPhe)]QCQ[dQ]Q)
modifications: disulfide 2-10; reading uncertain
notes: also called Ex. 176
Consider B5, for which the “% inhibition at 100 µM” value in experiment [1] stood at 69%; in experiment [6], 55%; in experiment [2], 17%; in experiment [3], 15%.

B6: Example 109 (peptide)
peptide: XQTASIPPQTY
HELM: PEPTIDE1{[Nle].Q.T.A.S.I.P.P.Q.T.Y.[dP].P}$PEPTIDE1,PEPTIDE1,1:R1-13:R2$$$V2.0
SMILES: CCCC[C@@H]1NC(=O)[C@@H]2CCCN2C(=O)[C@H]2CCCN2C(=O)[C@H](Cc2ccc(O)cc2)NC(=O)[C@H]([C@@H](C)O)NC(=O)[C@H](CCC(N)=O)NC(=O)[C@@H]2CCCN2C(=O)[C@@H]2CCCN2C(=O)[C@H]([C@@H](C)CC)NC(=O)[C@H](CO)NC(=O)[C@H](C)NC(=O)[C@H]([C@@H](C)O)NC(=O)[C@H](CCC(N)=O)NC1=O
notes: also called Ex. 109
In the case of B6, the “% inhibition at 100 µM” value stood at 54.1% in experiment [1], 13.8% in experiment [6], 0% in experiment [3] and 0% in experiment [5].

B7: Example 154 (peptide)
peptide: XQTASIPPQTY
HELM: PEPTIDE1{[CCCCCCCC[C@H](N[*:1])C(=O)[*:2]].Q.T.A.S.I.P.P.Q.T.Y.[dP].P}$PEPTIDE1,PEPTIDE1,1:R1-13:R2$$$V2.0
SMILES: CCCCCCCC[C@@H]1NC(=O)[C@@H]2CCCN2C(=O)[C@H]2CCCN2C(=O)[C@H](Cc2ccc(O)cc2)NC(=O)[C@H]([C@@H](C)O)NC(=O)[C@H](CCC(N)=O)NC(=O)[C@@H]2CCCN2C(=O)[C@@H]2CCCN2C(=O)[C@H]([C@@H](C)CC)NC(=O)[C@H](CO)NC(=O)[C@H](C)NC(=O)[C@H]([C@@H](C)O)NC(=O)[C@H](CCC(N)=O)NC1=O
Regarding B7, the “% inhibition at 100 µM” value with Chymase, from human skin is 0%; in experiment [1], 27%; in experiment [2], 15%; in experiment [4], 0%; in experiment [5], 0%.

B8: Example 156 (peptide)
peptide: cyclo([Gly(octyl)]ETASIPPQKY[dP]P)
notes: also called Ex. 156
As for B8, the “% inhibition at 100 µM” value in the experiment with Chymase, from human skin stood at 0%; in experiment [1], 46%; in experiment [2], 15%; in experiment [3] it was 17%; in experiment [4] it was 0%; in experiment [5] it was 0%.

B9: Example 169 (peptide)
peptide: XCTASXPPQCY
HELM: PEPTIDE1{[Nle].C.T.A.S.[CCCCCCCC[C@H](N[*:1])C(=O)[*:2]].P.P.Q.C.Y.[dP].Q}$PEPTIDE1,PEPTIDE1,2:R3-10:R3|PEPTIDE1,PEPTIDE1,1:R1-13:R2$$$V2.0
SMILES: CCCCCCCC[C@@H]1NC(=O)[C@H](CO)NC(=O)[C@H](C)NC(=O)[C@H]([C@@H](C)O)NC(=O)[C@@H]2CSSC[C@H](NC(=O)[C@H](CCC(N)=O)NC(=O)[C@@H]3CCCN3C(=O)[C@@H]3CCCN3C1=O)C(=O)N[C@@H](Cc1ccc(O)cc1)C(=O)N1CCC[C@@H]1C(=O)N[C@@H](CCC(N)=O)C(=O)N[C@@H](CCCC)C(=O)N2
notes: also called Ex. 169
For B9, the “% inhibition at 100 µM” value is 10.4% in experiment [7]; 0% with Chymase, from human skin; 79.6% in experiment [6]; 20.6% in experiment [3]; 13.3% in experiment [4]; 10.8% in experiment [5].

B10: Example 127 (peptide)
peptide: XCTASIPPQCY
HELM: PEPTIDE1{[Nle].C.T.A.S.I.P.P.Q.C.Y.[dK].E}$PEPTIDE1,PEPTIDE1,2:R3-10:R3|PEPTIDE1,PEPTIDE1,1:R1-13:R2$$$V2.0
SMILES: CCCC[C@@H]1NC(=O)[C@H](CCC(=O)O)NC(=O)[C@@H](CCCCN)NC(=O)[C@H](Cc2ccc(O)cc2)NC(=O)[C@@H]2CSSC[C@H](NC1=O)C(=O)N[C@@H]([C@@H](C)O)C(=O)N[C@@H](C)C(=O)N[C@@H](CO)C(=O)N[C@@H]([C@@H](C)CC)C(=O)N1CCC[C@H]1C(=O)N1CCC[C@H]1C(=O)N[C@@H](CCC(N)=O)C(=O)N2
As for B10, the “% inhibition at 100 µM” value turned out to be 64% in experiment [1]; 47.2% in experiment [6]; 0% in experiment [2]; 13.3% in experiment [4]; 0% in experiment [5].

B11: Example 136 (peptide)
peptide: XCTASIPPQCX
HELM: PEPTIDE1{[Nle].C.T.A.S.I.P.P.Q.C.[Phg].[dP].P}$PEPTIDE1,PEPTIDE1,2:R3-10:R3|PEPTIDE1,PEPTIDE1,1:R1-13:R2$$$V2.0
SMILES: CCCC[C@@H]1NC(=O)[C@@H]2CCCN2C(=O)[C@H]2CCCN2C(=O)[C@H](c2ccccc2)NC(=O)[C@@H]2CSSC[C@H](NC1=O)C(=O)N[C@@H]([C@@H](C)O)C(=O)N[C@@H](C)C(=O)N[C@@H](CO)C(=O)N[C@@H]([C@@H](C)CC)C(=O)N1CCC[C@H]1C(=O)N1CCC[C@H]1C(=O)N[C@@H](CCC(N)=O)C(=O)N2
notes: also called Ex. 136
Turning to B11, the “% inhibition at 100 µM” value came out at 0% in experiment [7]; 0% with Chymase, from human skin; 67.9% in experiment [6]; 0% in experiment [2]; 0% in experiment [4]; 0% in experiment [5].

The record behind these values is US20140213531A1 (POLYPHOR, published 2014).
